From the FLAb antibody collection (doi:10.7554/elife.23156)

B1: scFv; the commonest letter at each place (parent)
chain 1: EVKLDETGGGLVQPGRPMKLSCVASGFTFSDYWMNWVRQSPEKGLEWVAQIRNKPYNYETYYSDSVKGRFTISRDDSKSSVYLQMNNLRVEDMGIYYCTGSYYGMDYWGQGTSVTVS
chain 2: DVVMTQTPLSLPVSLGDQASISCRSSQSLVHSNGNTYLRWYLQKPGQSPKVLIYKVSNRFSGVPDRFSGSGSGTDFTLKISRVEAEDLGVYFCSQSTHVPWTFGGGTKLEIK

Assays:
fluorescein = variants of: B1; experiment: Kd (Tite-Seq); details: with fluorescein; format: scFv 4-4-20, heavy + light
[1] = variants of: B1; experiment: yeast surface expression (ratio to wild type); higher = more expressed; details: format: scFv 4-4-20, heavy + light

Kd (fluorescein) [µM]	Variant	yeast surface expression [1]
≥ 10	chain 1 EVKLDETGGGLVQPGRPMKLSCVASGFTFSDYWMNWVRQSPEKGLEWVAQIRNKPYNYETYYSDSVKGRFTISRDDSKSSVYLQMNNLRVEDMGIYYCTGSYYGDDYWFQGTSVTVS chain 2 DVVMTQTPLSLPVSLGDQASISCRSSQSLVHSNGNTYLRWYLQKPGQSPKVLIYKVSNRFSGVPDRFSGSGSGTDFTLKISRVEAEDLGVYFCSQSTHVPWTFGGGTKLEIK [chain 1 M105D G109F]	0.218
≥ 10	chain 1 EVKLDETGGGLVQPGRPMKLSCVASGFTFSDYWMNWVRQSPEKGLEWVAQIRNKPYNYETYYSDSVKGRFTISRDDSKSSVYLQMNNLRVEDMGIYYCTGSYYGDGYWGQGTSVTVS chain 2 DVVMTQTPLSLPVSLGDQASISCRSSQSLVHSNGNTYLRWYLQKPGQSPKVLIYKVSNRFSGVPDRFSGSGSGTDFTLKISRVEAEDLGVYFCSQSTHVPWTFGGGTKLEIK [chain 1 M105D D106G]	0.347
≥ 10	chain 1 EVKLDETGGGLVQPGRPMKLSCVASGFTFSDYWMNWVRQSPEKGLEWVAQIRNKPYNYETYYSDSVKGRFTISRDDSKSSVYLQMNNLRVEDMGIYYCTGSYYGDCYWGQGTSVTVS chain 2 DVVMTQTPLSLPVSLGDQASISCRSSQSLVHSNGNTYLRWYLQKPGQSPKVLIYKVSNRFSGVPDRFSGSGSGTDFTLKISRVEAEDLGVYFCSQSTHVPWTFGGGTKLEIK [chain 1 M105D D106C]	0.616
≥ 10	chain 1 EVKLDETGGGLVQPGRPMKLSCVASGFTFSDYWMNWVRQSPEKGLEWVAQIRNKPYNYETYYSDSVKGRFTISRDDSKSSVYLQMNNLRVEDMGIYYCTGSYYGDTYWGQGTSVTVS chain 2 DVVMTQTPLSLPVSLGDQASISCRSSQSLVHSNGNTYLRWYLQKPGQSPKVLIYKVSNRFSGVPDRFSGSGSGTDFTLKISRVEAEDLGVYFCSQSTHVPWTFGGGTKLEIK [chain 1 M105D D106T]	0.588
≥ 10	chain 1 EVKLDETGGGLVQPGRPMKLSCVASGFTFSDYWMNWVRQSPEKGLEWVAQIRNKPYNYETYYSDSVKGRFTISRDDSKSSVYLQMNNLRVEDMGIYYCTGSYYGDIYWGQGTSVTVS chain 2 DVVMTQTPLSLPVSLGDQASISCRSSQSLVHSNGNTYLRWYLQKPGQSPKVLIYKVSNRFSGVPDRFSGSGSGTDFTLKISRVEAEDLGVYFCSQSTHVPWTFGGGTKLEIK [chain 1 M105D D106I]	0.844
≥ 10	chain 1 EVKLDETGGGLVQPGRPMKLSCVASGFTFSDYWMNWVRQSPEKGLEWVAQIRNKPYNYETYYSDSVKGRFTISRDDSKSSVYLQMNNLRVEDMGIYYCTGSYYGDDYSGQGTSVTVS chain 2 DVVMTQTPLSLPVSLGDQASISCRSSQSLVHSNGNTYLRWYLQKPGQSPKVLIYKVSNRFSGVPDRFSGSGSGTDFTLKISRVEAEDLGVYFCSQSTHVPWTFGGGTKLEIK [chain 1 M105D W108S]	0.458
≥ 10	chain 1 EVKLDETGGGLVQPGRPMKLSCVASGFTFSDYWMNWVRQSPEKGLEWVAQIRNKPYNYETYYSDSVKGRFTISRDDSKSSVYLQMNNLRVEDMGIYYCTGSYYGDDYTGQGTSVTVS chain 2 DVVMTQTPLSLPVSLGDQASISCRSSQSLVHSNGNTYLRWYLQKPGQSPKVLIYKVSNRFSGVPDRFSGSGSGTDFTLKISRVEAEDLGVYFCSQSTHVPWTFGGGTKLEIK [chain 1 M105D W108T]	0.455
4.15	chain 1 EVKLDETGGGLVQPGRPMKLSCVASGFTFSDYWMNWVRQSPEKGLEWVAQIRNKPYNYETYYSDSVKGRFTISRDDSKSSVYLQMNNLRVEDMGIYYCTGSYYGEDYWGQGTSVTVS chain 2 DVVMTQTPLSLPVSLGDQASISCRSSQSLVHSNGNTYLRWYLQKPGQSPKVLIYKVSNRFSGVPDRFSGSGSGTDFTLKISRVEAEDLGVYFCSQSTHVPWTFGGGTKLEIK [chain 1 M105E]	1.01
≥ 10	chain 1 EVKLDETGGGLVQPGRPMKLSCVASGFTFSDYWMNWVRQSPEKGLEWVAQIRNKPYNYETYYSDSVKGRFTISRDDSKSSVYLQMNNLRVEDMGIYYCTGSYYGDDYWGQGTSVTVS chain 2 DVVMTQTPLSLPVSLGDQASISCRSSQSLVHSNGNTYLRWYLQKPGQSPKVLIYKVSNRFSGVPDRFSGSGSGTDFTLKISRVEAEDLGVYFCSQSTHVPWTFGGGTKLEIK [chain 1 M105D]	0.695
≥ 10	chain 1 EVKLDETGGGLVQPGRPMKLSCVASGFTFSDYWMNWVRQSPEKGLEWVAQIRNKPYNYETYYSDSVKGRFTISRDDSKSSVYLQMNNLRVEDMGIYYCTGSYYGDDDWGQGTSVTVS chain 2 DVVMTQTPLSLPVSLGDQASISCRSSQSLVHSNGNTYLRWYLQKPGQSPKVLIYKVSNRFSGVPDRFSGSGSGTDFTLKISRVEAEDLGVYFCSQSTHVPWTFGGGTKLEIK [chain 1 M105D Y107D]	0.442
≥ 10	chain 1 EVKLDETGGGLVQPGRPMKLSCVASGFTFSDYWMNWVRQSPEKGLEWVAQIRNKPYNYETYYSDSVKGRFTISRDDSKSSVYLQMNNLRVEDMGIYYCTGSYYGEYYWGQGTSVTVS chain 2 DVVMTQTPLSLPVSLGDQASISCRSSQSLVHSNGNTYLRWYLQKPGQSPKVLIYKVSNRFSGVPDRFSGSGSGTDFTLKISRVEAEDLGVYFCSQSTHVPWTFGGGTKLEIK [chain 1 M105E D106Y]	0.534
≥ 10	chain 1 EVKLDETGGGLVQPGRPMKLSCVASGFTFSDYWMNWVRQSPEKGLEWVAQIRNKPYNYETYYSDSVKGRFTISRDDSKSSVYLQMNNLRVEDMGIYYCTGSYYGECYWGQGTSVTVS chain 2 DVVMTQTPLSLPVSLGDQASISCRSSQSLVHSNGNTYLRWYLQKPGQSPKVLIYKVSNRFSGVPDRFSGSGSGTDFTLKISRVEAEDLGVYFCSQSTHVPWTFGGGTKLEIK [chain 1 M105E D106C]	0.779
